Key:
human Claudin 3 = molecular target: T1, human Claudin 3 (human, UniProt O15551 1-220); assay: flow cytometry, CHOK1/CLDN3 cells
T1 construct: whole, on cells; also called CLDN3
T1 sequence (looked up): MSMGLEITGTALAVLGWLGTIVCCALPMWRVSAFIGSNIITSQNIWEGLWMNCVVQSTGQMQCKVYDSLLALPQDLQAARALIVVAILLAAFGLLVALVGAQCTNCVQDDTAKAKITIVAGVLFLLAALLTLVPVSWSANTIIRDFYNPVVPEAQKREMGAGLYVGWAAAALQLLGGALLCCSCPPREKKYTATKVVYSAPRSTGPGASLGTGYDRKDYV
Experimental: In this example, cell based binding of chimeric antibody 97-C10E1-2 toward human CLDN3 overexpression cell line were assessed using flow cytometry.
Briefly, cells were incubated with chimeric antibody (from 100 nM, 6 folds dilution, 8 points). After incubation at 4° C. for 60 minutes. Cells were pelleted and washed twice with 2% FBS/PBS buffer, and stained with fluorescent conjugated secondary antibody at 4° C. for 30 minutes. After that the cells were washed twice and resuspended in 80 μL of 2% FBS/PBS buffer. Fluorescent signal of binding was detected using Agilent. The EC50 was calculated using the GraphPad Software.

human Claudin 6 [1] = molecular target: T2, human Claudin 6 (human, UniProt P56747 1-220); assay: cell-based or functional assay
T2 sequence (looked up): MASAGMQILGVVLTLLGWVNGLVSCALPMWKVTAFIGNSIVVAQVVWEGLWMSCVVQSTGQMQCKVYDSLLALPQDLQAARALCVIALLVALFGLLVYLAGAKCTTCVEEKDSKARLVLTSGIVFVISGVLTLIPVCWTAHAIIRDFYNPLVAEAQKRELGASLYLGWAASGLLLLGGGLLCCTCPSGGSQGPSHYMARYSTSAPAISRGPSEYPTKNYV

human Claudin 6 [2] = molecular target: T2, human Claudin 6; assay: flow cytometry, OVCAR3 cells (endogenous CLDN6), Ab titrated from 100 nM
Experimental: In this example, FACS binding of chimeric Abs to Ovcar3 and Ov90 cells with claudin 6 endogenous expression were assessed using flow cytometry.
(§1) Claudin 6 endogenous expression cell line were incubated with chimeric Abs (from 100 nM, 6-fold dilution, 8 points) for 60 minutes at 4° C. Cells were pelleted and washed twice with 2% FBS/PBS buffer, and stained with fluorescent conjugated secondary antibody at 4° C. for 30 minutes. After that the cells were washed twice and resuspended in 80 μL of 2% FBS/PBS buffer. Fluorescent signal of binding was detected using Agilent. The EC50 was calculated using the GraphPad software.

human Claudin 6 [3] = molecular target: T2, human Claudin 6; assay: flow cytometry, HEK293/H_CLDN6 cells, Ab titrated from 100 nM
Experimental: In this example, cell based binding of chimeric Abs on human CLDN6 & CLND9 over-expressing cell line were assessed using flow cytometry.
as §1, with “Briefly, the cells” for “Claudin 6 endogenous expression cell line”, “software (LaJolla, CA).” for “software.”

human Claudin 6 [4] = molecular target: T2, human Claudin 6; assay: cell-based or functional assay; remark: listed apart in the source

B1: 97-C10E1-2 (antibody, V domains shown)
VH: EVQLQQSGPELVKPGASMKISCKASGYAFTGYTMNWVKQSHGKNLEWIGLSNPYNGGTIYNQKFKGKATLTVDKSSSTAYMELLSLTSEDSAVYYCARNYYYGSSYAYYYAMDYWGQGTSVTVSS
VL: QAVVTQESALTTSPGETVTLTCRSSTGAVTTSNYANWVQEKPDHLFTGLIGGTNNRAPGVPARFSGSLIGDKAALTITGAQTEDEAIYFCALWYSNHWVFGGGTKLTVL
notes: Tested as chimeric antibody; also called chimeric antibody 97-C10E1-2
Human Claudin 3
  binding result: no binding (tested: 100 nM (highest concentration tested))
Human Claudin 6 [1]
  internalization Top RLU (HEK293/H_CLDN6): 829000 RLU
Human Claudin 6 [2]
  Top MFI: 2590
Human Claudin 6 [3]
  Top MFI: 321000
Human Claudin 6 [4]
  Inhibition Rate (%) (HEK293/H_CLDN6): 83.4%

Source: patent publication US20240317851A1 (LANOVA MEDICINES, published 2024)
